Measurements published in patent publication US20150190494A1 (OXFORD UNIVERSITY INNOVATION, published 2015).
Where a chain is given by its changes, count along the chain named. Numbers in names are those of the source.

T1: fH67 (UniProt P08603 321-443)
T1 construct: domain: fH67; Flowed as analyte over immobilised fHbps in SPR; also called factor H
T1 sequence: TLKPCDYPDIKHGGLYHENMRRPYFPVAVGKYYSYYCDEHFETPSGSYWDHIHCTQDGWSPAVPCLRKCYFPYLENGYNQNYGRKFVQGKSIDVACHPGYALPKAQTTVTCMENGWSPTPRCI

B1: WT V2 fHbp (other)
chain: CSSGGGGVAADIGAGLADALTAPLDHKDKSLQSLTLDQSVRKNEKLKLAAQGAEKTYGNGDSLNTGKLKNDKVSRFDFIRQIEVDGQLITLESGEFQIYKQDHSAVVALQIEKINNPDKIDSLINQRSFLVSGLGGEHTAFNQLPSGKAEYHGKAFSSDDPNGRLHYSIDFTKKQGYGRIEHLKTPEQNVELASAELKADEKSHAVILGDTRYGGEEKGTYHLALFGDRAQEIAGSATVKIREKVHEIGIAGKQ
notes: also called wild type V2 fHbp; V2WT
B2: M4A V2 fHbp (S35G/D107S/S137G/G138D) (other)
chain: B1 chain with S30G, D102S, S132G, G133D
B3: M4B V2 fHbp (S35G/L114F/S137G/G138D) (other)
chain: B1 chain with S30G, L109F, S132G, G133D
B4: M5 V2 fHbp (S35G/D107S/L114F/S137G/G138D) (other)
chain: B1 chain with S30G, D102S, L109F, S132G, G133D
B5: M6 V2 fHbp (S35G/D107S/V112T/L114F/S137G/G138D) (other)
chain: B1 chain with S30G, D102S, V107T, L109F, S132G, G133D

Biological target: T1, fH67
Test: SPR, fHbp immobilised on sensor chip, fH67 flowed over
Protocol: Kd values for fH₆₇ binding to the stable V2 fHbps were calculated from the sensogram (fH₆₇ binding to WT V2 fHbp shown in Appendix 3a) and compared to fH₆₇ binding to WT V2 fHbp (Table 3).

| Binder | Relative Kd |
| --- | --- |
| B1 | 1 fold against WT V2 fHbp |
| B2 | 2.39 fold against WT V2 fHbp |
| B3 | 3.92 fold against WT V2 fHbp |
| B4 | 3.84 fold against WT V2 fHbp |
| B5 | 19.3 fold against WT V2 fHbp |

Biological target: T1, fH67
Test: SPR, fHbp immobilised on sensor chip, fH67 flowed over; mean ± SD of two determinations

| Binder | Kd |
| --- | --- |
| B1 | 3.18 nM |
| B2 | 7.6 nM |
| B3 | 12.5 nM |
| B4 | 12.2 nM |
| B5 | 61.3 nM |
